Columns and labels:
RecA [1] = biological target: T1, RecA (Escherichia coli, UniProt P0A7G6 P0A7G6:2-353); assay: EMSA; OligoA/OligoB 70-mer duplex target; double D-loop with OligoI or LNA OligoN; ATP-gamma-S, Mg acetate, 37 C
Protocol: (§1) We then add double-stranded nucleic acid target, which is generally ³²P-end-labeled using T4 polynucleotide kinase to facilitate detection of the complex, at a concentration of approximately 20 nM and 10 mM magnesium acetate to a final volume of 10 μl. We incubate this reaction for 10 minutes at 37° C. to allow for synapsis between to the incoming oligonucleotide and the target nucleic acid molecule. We then add the second or “annealing” oligonucleotide in 1 μl to a concentration of 640 nM (calculated for the original 10 μl reaction volume) and incubate for 10 minutes at 37° C. to allow the second oligonucleotide to anneal to the target nucleic acid. We then denature the RecA bound to the oligonucleotide:target complex by cooling the reaction to about 4° C. in an ice bath and adding 1 μl of 10% SDS. The samples are then used immediately or stored at −20° C.
Oligonucleotides used in this example. We employ the protocol described in Example 1 to form double D-loops between two DNA oligonucleotides and linear, duplex target DNA. The target duplex DNA is composed of two linear 70-mer oligonucleotides with sequence complementary to each other. The sequence of the first target strand, designated “OligoA”, is: 5′-[…]-3′ (SEQ ID NO: 1) and the sequence of the second target strand, designated “OligoB”, is: 3′-[…]-5′ (SEQ ID NO: 2). […]

RecA [2] = biological target: T1, RecA; assay: EMSA; matched Hyg(rep) 8 kb plasmid target with matched PNA or LNA annealing oligo; details: label: 5'-Cy5
Protocol: The target in these experiments is one of two nonsupercoiled plasmids of about 8 kb, differing in a single nucleotide. The incoming oligonucleotides are 31-mer deoxyribonucleotides labeled at the 5′ terminus with either Cy5 or Cy3; the annealing oligonucleotides are 15-mer PNA oligonucleotides acetylated at the N terminus. Deproteinization is performed by adding SDS at either 37° C. or 45° C. to aliquots of the reaction mixture and incubating at the indicated temperature for various amounts of time, after which time the aliquots are removed and placed on dry ice.
Two gels are run separately, but scanned at the same time to allow a direct comparison. Results are shown in FIGS. 18A and 18B for the 37° C. deproteinization data only.

RecA [3] = biological target: T1, RecA; assay: EMSA; beta-tubulin PCR product; RecA, incoming and LNA annealing oligos all required; details: label: 5'-biotin
RecA [4] = biological target: T1, RecA; assay: pulldown; Kan plasmid isolated from tet plasmid excess; PNA annealing oligo; details: label: 3'-BioTEG
RecA [5] = biological target: T1, RecA; assay: EMSA; Y-arm on OligoT/OligoU duplex with Oligo5; almost quantitative; ATP-gamma-S, Mg2+, 37 C
Protocol: as §1
To test the formation of Y-arms under our assay conditions, we use a different target duplex DNA composed of two linear 67-mer oligonucleotides with sequence complementary to each other. The sequence of the first target strand, designated “OligoT”, is: 5′-[…]-3′ (SEQ ID NO: 6) and the sequence of the second target strand, designated “OligoU”, is: 3′-[…]-5′ (SEQ ID NO: 7). We use two oligonucleotides complementary to the end of the OligoT/OligoU linear target duplex in these Y-arm experiments. […]

RecA [6] = biological target: T1, RecA; assay: EMSA; OligoA/OligoB target, opposite strand; ATP-gamma-S, Mg2+, 37 C
Protocol: as §1
Oligonucleotides used in this example. We use the OligoA/OligoB duplex as the target nucleic acid for these experiments. As the incoming oligonucleotide, we use either OligoC (SEQ ID NO: 3) or the complementary oligonucleotide which targets the opposite strand of the duplex target, designated “OligoD”, which has the sequence 5′-[…]-3′ (SEQ ID NO: 20).

RecA [7] = biological target: T1, RecA; assay: EMSA; Y-arm on OligoT/OligoU; longer oligos more efficient
Protocol: as §1
Oligonucleotides used in this example. We use the OligoT/OligoU duplex as the target nucleic acid for these experiments. […]

RecA [8] = biological target: T1, RecA; assay: EMSA; Y-arm on OligoT/OligoU
Protocol: as §1
Oligonucleotides used in this example. We use the OligoT/OligoU duplex as the target nucleic acid for these experiments. We use incoming DNA oligonucleotides complementary over a range of lengths to the end of the duplex target as follows: OligoV is a 20-mer with the sequence 5′-[…]-3′ (SEQ ID NO: 10); OligoW is a 25-mer with the sequence 5′-[…]-3′ (SEQ ID NO: 11); OligoX is a 30-mer (SEQ ID NO: 8); OligoY is a 35-mer with the sequence 5′-[…]-3′ (SEQ ID NO: 12); OligoZ is a 40-mer with the sequence 5′-[…]-3′ (SEQ ID NO: 13); and Oligo1 is a 46-mer with the sequence 5′-[…]-3′ (SEQ ID NO: 14). We use annealing DNA oligonucleotides complementary to the end of the duplex target (and to the incoming oligonucleotides) over a range of lengths as follows: Oligo2 is a 20-mer with the sequence 5′-[…]-3′ (SEQ ID NO: 15); Oligo4 is a 25-mer with the sequence 5′-[…]-3′ (SEQ ID NO: 16); Oligo5 is a 30-mer with the sequence 5′-[…]-3′ (SEQ ID NO: 9); Oligo6 is a 35-mer with the sequence 5′-[…]-3′ (SEQ ID NO: 17); Oligo7 is a 40-mer with the sequence 5′-[…]-3′ (SEQ ID NO: 18); and Oligo8 is a 46-mer with the sequence 5′-[…]-3′ (SEQ ID NO: 19).

RecA [9] = biological target: T1, RecA; assay: EMSA; Hyg- PCR target, LNA annealing oligos; details: label: 5'-Cy5
Text: We also form double D-loops using a PCR product produced from a plasmid containing the a functional hygromycin resistance gene (Hyg⁺) or a hygromycin resistance gene containing a point mutation (Hyg⁻; FIG. 15; SEQ ID NO:______]) using primers AUR123f (5′-[…]-3′; SEQ ID NO: 45) and Hyg1560r (5′-[…]-3′; SEQ ID NO: 46). We follow the protocol described in this Example for the formation of double D-loops in the Kan⁻ PCR product using HygUDF/45G as the incoming oligonucleotide (5′-Cy™ 5-[…]-3′; SEQ ID NO: 47) and various annealing oligonucleotides as indicated in Table 2. We analyze the samples prepared by separating on a 2.5% agarose gel at 4° C. as described above.

T1 sequence (P0A7G6 2-353, one chain of several): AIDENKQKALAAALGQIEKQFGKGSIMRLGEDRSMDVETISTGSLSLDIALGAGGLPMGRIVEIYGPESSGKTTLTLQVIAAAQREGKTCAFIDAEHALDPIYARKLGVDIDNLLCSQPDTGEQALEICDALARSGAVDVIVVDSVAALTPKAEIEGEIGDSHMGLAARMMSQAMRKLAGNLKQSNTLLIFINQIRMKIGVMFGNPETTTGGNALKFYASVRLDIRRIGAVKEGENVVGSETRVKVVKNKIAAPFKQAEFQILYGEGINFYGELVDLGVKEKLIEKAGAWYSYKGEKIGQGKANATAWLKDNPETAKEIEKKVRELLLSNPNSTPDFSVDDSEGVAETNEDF

Does AGGCTATTCGGCTACGACTGGGCACAACAG (ssDNA) [OligoC incoming 30-mer] bind (RecA [1])?
Result: binds

Does ATTTACCCGCAGGACCTATCCACGCCCTCCT (ssDNA) [HYG(NT)D5Cy5/31C(rep)] bind (RecA [2])?
Result: binds

Does GGCCTGAAGATGTCGGCCACCTTCATCGGCA (ssDNA) [betaTUBwt/31D/5'Bio] bind (RecA [3])?
Result: binds

Does GAGGCTATTCGGCTATGACTGGGCACAACAG (ssDNA) [KAN/LDB/31t] bind (RecA [4])?
Result: binds

Does GCAGACTTCTCCTCAGGAGTCAGGTGCACC (ssDNA) [OligoX incoming 30-mer] bind (RecA [5])?
Result: binds

Does CTGTTGTGCCCAGTCCTAGCCGAATAGCCT (ssDNA) [OligoD incoming 30-mer] bind (RecA [6])?
Result: binds

Does GCAGACTTCTCCTCAGGAGT (ssDNA) [OligoV incoming 20-mer] bind (RecA [7])?
Result: binds

Does GCAGACTTCTCCTCAGGAGTCAGGT (ssDNA) [OligoW incoming 25-mer] bind (RecA [8])?
Result: binds

Does GCAGACTTCTCCTCAGGAGTCAGGTGCACCATGGT (ssDNA) [OligoY incoming 35-mer] bind (RecA [8])?
Result: binds

Does GCAGACTTCTCCTCAGGAGTCAGGTGCACCATGGTGTCTG (ssDNA) [OligoZ incoming 40-mer] bind (RecA [8])?
Result: binds

Does GCAGACTTCTCCTCAGGAGTCAGGTGCACCATGGTGTCTGTTTGAG (ssDNA) [Oligo1 incoming 46-mer] bind (RecA [8])?
Result: binds

Does CGCAGCTATTTACCCGCAGGACCTATCCACGCCCTCCTACATCGA (ssDNA) [HygUDF/45G incoming] bind (RecA [9])?
Result: binds

From patent US20030180746, “Polymorphism detection and separation” (published 2003)
